Measurements reported in patent US20190284289A1 (Eli Lilly, published 2019).

Experiments:
rat RANKL = molecular target: T1, rat RANKL (rat, UniProt Q9ESE2 141-318, limits assumed); assay: SPR (BIAcore 2000), antibody captured on Protein A, RANKL as analyte, 25 C; rat RANKL
T1 construct: Construct not described
T1 sequence (looked up): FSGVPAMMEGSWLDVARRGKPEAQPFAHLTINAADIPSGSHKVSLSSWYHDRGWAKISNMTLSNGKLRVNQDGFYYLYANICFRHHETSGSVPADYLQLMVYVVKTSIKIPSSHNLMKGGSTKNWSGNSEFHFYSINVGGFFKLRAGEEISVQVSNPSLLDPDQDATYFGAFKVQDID

mouse RANKL = molecular target: T2, mouse RANKL (mouse, UniProt O35235 158-316, limits assumed); assay: SPR (BIAcore 2000), antibody captured on Protein A, RANKL as analyte, 25 C; mouse RANKL
T2 construct: Construct not described; also called murine RANKL
T2 sequence (looked up): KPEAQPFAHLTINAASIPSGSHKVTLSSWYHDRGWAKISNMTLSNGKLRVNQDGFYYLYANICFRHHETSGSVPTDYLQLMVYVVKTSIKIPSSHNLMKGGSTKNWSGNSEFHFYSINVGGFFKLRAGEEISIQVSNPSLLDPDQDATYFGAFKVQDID

human RANKL [1] = molecular target: T3, human RANKL (human, UniProt O14788 158-317, limits assumed); assay: SPR (BIAcore 2000), antibody captured on Protein A, RANKL as analyte, 25 C; human RANKL
T3 construct: also called RANKL Extracellular Domain
T3 sequence: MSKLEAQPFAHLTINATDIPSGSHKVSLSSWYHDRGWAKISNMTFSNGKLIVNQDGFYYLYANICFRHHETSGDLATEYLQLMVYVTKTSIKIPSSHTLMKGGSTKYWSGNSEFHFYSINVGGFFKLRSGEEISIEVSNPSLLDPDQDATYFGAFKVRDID
Procedure: The BIAcore® 2000 instrument is used to measure binding affinity. All measurements are performed at 25° C. 2 ug/mL of exemplified antibody of Example 1 is dissolved in HBS-EP buffer (150 mM sodium chloride, 3 mM EDTA, 0.005% (w/v) surfactant P-20, and 10 mM HEPES, pH7.4). Protein A is immobilized on flow cells 1 to 4 of a CM4 sensor chip at a level of 500 response units (Rus) using an amine coupling kit.
Binding is evaluated using multiple analytical cycles. Each cycle is performed at a flow rate of 20 uL/minute. About 10 uL of the exemplified antibody of Example 1, at a concentration of 2 ug/mL, is injected, aiming to capture about 100-200Rus; 250 uL of human RANKL (starting at 5 nM and using two-fold serial dilutions for each cycle) is injected, ten minutes is given for dissociation, and 10 uL of 10 mM glycine hydrochloride, pH 1.5 is used for regeneration. Association and dissociation rates for each cycle are evaluated using a “1:1 with mass transfer” binding model in the BIAevaluation software.

human RANKL [2] = molecular target: T3, human RANKL; assay: cell-based or functional assay

B1: exemplified antibody of Example 1 (antibody, human IgG4 S228P, kappa, F234A L235A, V domains shown)
VH: QVQLVQSGAEVKKPGSSVKVSCKASGYAFTNYYIEWVRQAPGQGLEWMGVINPGWGDTNYNEKFKGRVTITADKSTSTAYMELSSLRSEDTAVYYCARRDTAHGYYALDPWGQGTTVTVSS
VL: DIQMTQSPSSLSASVGDRVTITCKASQNVGTNVAWYQQKPGKAPKLLIYSASYRYSGVPSRFSGSGSGTDFTLTISSLQPEDFATYYCQQYWDYPLTFGGGTKVEIKR
notes: also called the antibody; anti-RANKL antibody
- Kd (rat RANKL): 0.0344 nM
- Kd (mouse RANKL): 0.00664 nM
- Kd (human RANKL [1]): 0.00282 nM
- IC50, neutralization of human RANKL induced NF-kB driven luciferase luminescence in HEK293 cells expressing human RANK (human RANKL [2]): 0.069 nM
